# Measurements published in patent US20210253713A1 (ABEXXA BIOLOGICS, published 2021).
# B1: MAB-031 (anti-HLA-E/…) (antibody, V domains shown)
# VH: QVQLQQSGPELVKPGASVKMSCKASGYTFTDYVISWVKQRTGQGLEWIGEIYPGNNTTYYNDNFRGKATLTVDKSSSTAYMQLSSLTSEDSAVYYCARESLGIYYGSTYKGLYAMDYWGQGTTLTVSS
# VL: QIVLTQSPAIMSASPGEKVTITCSASSSVSYMHWFQQKPGTSPKLWIYSTSNLASGVPARFSGSGSGTSYSLTISRMEAEDAATYYCQQRSSYPPTFGAGTKLELKR
# notes: also called MAB31; MAB-31
# B2: MAB-036 (anti-HLA-E/…) (antibody, V domains shown)
# VH: EVQLVESGGGLVQPGGSLRLSCAASGFTFSSYAIHWVRQAPGKGLEWVARIAYGGGATRYADSVKGRFTISADTSKNTAYLQMNSLRAEDTAVYYCAKGLSNFDYWGQGTLVTVSS
# VL: DIQMTQSPSSLSASVGDRVTITCRASQSISSYLNWYQQKPGKAPKLLIYNAAFLYSGVPSRFSGSRSGTDFTLTISSLQPEDFATYYCQQAATYPATFGQGTKVEIK
# notes: Full-length human IgG1 (pFUSE vector system, human kappa); CDRs of R4Clone #1 mutated light chain were grafted onto trastuzumab VH and VL frameworks; also called MAB36
# Key:
# [1] = biological target: T1, HLA-E/… (human, UniProt P13747 22-297; P61769 21-119, limits assumed); assay: ELISA, biotin-labeled complex on neutravidin plates, soluble bivalent IgG1, anti-human-HRP
# T1 construct: Biotin-labeled control complex captured on neutravidin plates through a C-terminal BirA tag; also called control HLA-E/peptide complex
# Experimental: (§1) To further evaluate the binding specificity and detection sensitivity of MAB-031 and MAB-036, a second ELISA was performed. For this assay, neutravidin coated plates were used to capture biotin-labeled HLA-E/peptide complexes. Because the HLA-E/peptide complexes have a single biotin molecule conjugated to the c-terminal end BirA tag, the immobilization of these complexes results in having the molecules lined up in a homogenous directional orientation. After incubation, unbound biotin-labeled HLA-E/peptide complexes are removed by rinsing the plate in a PBS+tween-20 buffer solution. MAB31 and MAB36 were then added to wells at concentrations that ranged from 1 ug/ml to 0.0001 ug/ml. Incubation was carried out for 1 hr, wells were rinsed and bound MAB was detected using a 1:2500 dilution of a goat anti-human-HRP conjugate. The assay was developed by adding the TMB substrate solution was added to wells and developed for 10 min before adding stop solution to terminate the reaction.
# [2] = biological target: T2, HLA-E/… (human, UniProt P13747 22-297; P61769 21-119, limits assumed); assay: as above; remark: listed apart in the source
# T2 construct: Biotin-labeled control complex captured on neutravidin plates through a C-terminal BirA tag; also called control HLA-E/peptide complex
# Experimental: as §1
# [3] = biological target: T3, HLA-E/… (human, UniProt P13747 22-297; P61769 21-119, limits assumed); assay: as above; remark: listed apart in the source
# T3 construct: Biotin-labeled control complex captured on neutravidin plates through a C-terminal BirA tag; also called control HLA-E/peptide complex
# Experimental: as §1
# [4] = biological target: T4, HLA-E/… (human, UniProt P13747 22-297; P61769 21-119, limits assumed); assay: as above
# T4 construct: Biotin-labeled control complex, used in both ELISA formats; also called control HLA-E/peptide complex
# Experimental: as §1
# [5] = biological target: T5, HLA-E/… (human, UniProt P13747 22-297; P61769 21-119, limits assumed); assay: as above; remark: listed apart in the source
# T5 construct: Biotin-labeled control complex captured on neutravidin plates through a C-terminal BirA tag; also called control HLA-E/peptide complex
# Experimental: as §1
# [6] = biological target: T6, HLA-E/… (human, UniProt P13747 22-297; P61769 21-119, limits assumed); assay: ELISA, antibody captured on Protein-A wells, soluble biotin-labeled HLA-E/peptide complex, SA-HRP
# T6 construct: Soluble biotin-labeled control complex; also called control HLA-E/peptide complex
# Experimental: (§2) The isolated scFv VL and VH domains were cloned into pFUSE-hIgG1-Fc and pFUSE2-CLIg-hk plasmids, respectively and plasmid DNA was prepared using standard protocol and used to co-transfect a 200 ml culture of Expi-293 cells. Following the manufacturer's instructions, supernatants were harvested at day 5 post-transfection for antibody purification using Protein-A coated beads. Next, the purified mouse-human chimeric IgG1 antibody, MAB-031 and the fully human antibody, MAB-036 were characterized for binding specificity and sensitivity by ELISA. In brief, Protein-A coated 96-wells were used to capture either MAB-031 or MAB-036 added to wells at a concentration of 10 ug/ml. After incubation for 60 min, wells were washed using PBS (pH 7.4)+0.1% Tween-20 and soluble biotin-labeled HLA-E/peptide complexes were added to individual wells at concentrations ranging from 0.25 to 0.0625 ug/ml. Wells were washed 3× using a solution of PBS+Tween-20 and then streptavidin-Horseradish peroxidase (SA-HRP) conjugate was added to wells and incubated for 30 min. One final wash was done and the substrate solution containing 3,3′,5,5′-tetramethylbenzidine (TMB) was added to wells and developed for 10 min before adding stop solution (0.16M sulfuric acid) to terminate the reaction.
# [7] = biological target: T7, HLA-E/… (human, UniProt P13747 22-297; P61769 21-119, limits assumed); assay: as above; remark: listed apart in the source
# T7 construct: Soluble biotin-labeled control complex; also called control HLA-E/peptide complex
# Experimental: as §2
Binder,binding result [1],binding result [2],binding result [3],binding result [4],binding result [5],binding result [6],binding result [7]
B1,no binding (tested: 1 ug/ml to 0.0001 ug/ml),no binding (tested: 1 ug/ml to 0.0001 ug/ml),no binding (tested: 1 ug/ml to 0.0001 ug/ml),no binding (tested: 1 ug/ml to 0.0001 ug/ml),no binding (tested: 1 ug/ml to 0.0001 ug/ml),no binding,no binding
B2,no binding (tested: 1 ug/ml to 0.0001 ug/ml),no binding (tested: 1 ug/ml to 0.0001 ug/ml),no binding (tested: 1 ug/ml to 0.0001 ug/ml),no binding (tested: 1 ug/ml to 0.0001 ug/ml),no binding (tested: 1 ug/ml to 0.0001 ug/ml),no binding,no binding
